The source of these data is patent publication US20250262210A1 (TRUSTEES OF COLUMBIA UNIVERSITY IN THE CITY OF NEW YORK, published 2025).

The target of the assay is T1, FBX038 (human, UniProt Q6PIJ6 1-1188, limits assumed).
T1 construct: Printed with a zero; probably FBXO38
T1 sequence (looked up): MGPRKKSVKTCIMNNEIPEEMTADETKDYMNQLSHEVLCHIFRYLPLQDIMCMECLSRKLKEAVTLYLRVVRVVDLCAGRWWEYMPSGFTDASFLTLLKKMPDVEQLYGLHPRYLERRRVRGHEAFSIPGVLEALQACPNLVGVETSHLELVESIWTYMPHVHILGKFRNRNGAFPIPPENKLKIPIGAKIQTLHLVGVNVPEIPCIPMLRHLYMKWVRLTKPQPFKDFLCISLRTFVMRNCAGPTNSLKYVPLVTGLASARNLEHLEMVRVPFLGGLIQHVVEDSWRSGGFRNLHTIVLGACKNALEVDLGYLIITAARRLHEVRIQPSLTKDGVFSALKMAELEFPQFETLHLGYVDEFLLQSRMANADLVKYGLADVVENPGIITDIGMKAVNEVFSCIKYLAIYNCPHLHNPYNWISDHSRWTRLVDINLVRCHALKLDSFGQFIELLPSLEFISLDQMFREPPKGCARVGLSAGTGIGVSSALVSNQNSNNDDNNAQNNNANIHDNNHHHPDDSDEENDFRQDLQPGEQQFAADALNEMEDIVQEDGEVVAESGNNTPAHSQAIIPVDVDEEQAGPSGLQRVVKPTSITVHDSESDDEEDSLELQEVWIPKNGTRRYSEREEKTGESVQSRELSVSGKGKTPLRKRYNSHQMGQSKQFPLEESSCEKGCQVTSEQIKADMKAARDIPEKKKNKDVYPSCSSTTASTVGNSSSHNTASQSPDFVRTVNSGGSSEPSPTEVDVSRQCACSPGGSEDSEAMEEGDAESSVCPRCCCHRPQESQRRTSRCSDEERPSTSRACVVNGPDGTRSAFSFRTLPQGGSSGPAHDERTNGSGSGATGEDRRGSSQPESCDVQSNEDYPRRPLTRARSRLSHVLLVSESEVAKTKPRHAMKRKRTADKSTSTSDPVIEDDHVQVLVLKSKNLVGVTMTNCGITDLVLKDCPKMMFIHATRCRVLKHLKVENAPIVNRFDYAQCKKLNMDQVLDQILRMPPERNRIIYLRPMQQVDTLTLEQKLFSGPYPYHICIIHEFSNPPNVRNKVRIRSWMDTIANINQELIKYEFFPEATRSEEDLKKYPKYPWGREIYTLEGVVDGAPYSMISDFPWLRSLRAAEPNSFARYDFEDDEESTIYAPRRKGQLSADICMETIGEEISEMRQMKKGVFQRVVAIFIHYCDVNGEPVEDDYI
The assay can be described thus: IP/MS, LZTR1 wild type-FLAG, U87. Put shortly:
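Gel slices were reduced with 5 mM DTT, alkylated with 11 mM IAA and digested overnight at 37° C. with trypsin. Peptides were analysed on an Orbitrap Fusion Tribrid by LC-MS/MS.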

B1: LZTR1-FLAG (other, human, UniProt Q8N653 1-840, looked up)
chain: MAGPGSTGGQIGAAALAGGARSKVAPSVDFDHSCSDSVEYLTLNFGPFETVHRWRRLPPCDEFVGARRSKHTVVAYKDAIYVFGGDNGKTMLNDLLRFDVKDCSWCRAFTTGTPPAPRYHHSAVVYGSSMFVFGGYTGDIYSNSNLKNKNDLFEYKFATGQWTEWKIEGRLPVARSAHGATVYSDKLWIFAGYDGNARLNDMWTIGLQDRELTCWEEVAQSGEIPPSCCNFPVAVCRDKMFVFSGQSGAKITNNLFQFEFKDKTWTRIPTEHLLRGSPPPPQRRYGHTMVAFDRHLYVFGGAADNTLPNELHCYDVDFQTWEVVQPSSDSEVGGAEVPERACASEEVPTLTYEERVGFKKSRDVFGLDFGTTSAKQPTQPASELPSGRLFHAAAVISDAMYIFGGTVDNNIRSGEMYRFQFSCYPKCTLHEDYGRLWESRQFCDVEFVLGEKEECVQGHVAIVTARSRWLRRKITQARERLAQKLEQEAAPVPREAPGVAAGGARPPLLHVAIREAEARPFEVLMQFLYTDKIKYPRKGHVEDVLLIMDVYKLALSFQLCRLEQLCRQYIEASVDLQNVLVVCESAARLQLSQLKEHCLNFVVKESHFNQVIMMKEFERLSSPLIVEIVRRKQQPPPRTPLDQPVDIGTSLIQDMKAYLEGAGAEFCDITLLLDGHPRPAHKAILAARSSYFEAMFRSFMPEDGQVNISIGEMVPSRQAFESMLRYIYYGEVNMPPEDSLYLFAAPYYYGFYNNRLQAYCKQNLEMNVTVQNVLQILEAADKTQALDMKRHCLHIIVHQFTKVSKLPTLRSLSQQLLLDIIDSLASHISDKQCAELGADI
notes: Expressed in HEK 293T, HeLa or U87 cells; used as cell lysate; also called LZTR1 wild type-FLAG; LZTR1 WT; not shown: FLAG tag at the C-terminus
As for B1, the binding result is “binds”.
